# According to patent publication US20240409645A1 (DUALYX, published 2024):
# T1: human IL-2 receptor (IL-2Rα/IL-2Rβ/γc) (human, UniProt P01589 22-272; P14784 27-551; P31785 23-369)
# T1 sequence 1: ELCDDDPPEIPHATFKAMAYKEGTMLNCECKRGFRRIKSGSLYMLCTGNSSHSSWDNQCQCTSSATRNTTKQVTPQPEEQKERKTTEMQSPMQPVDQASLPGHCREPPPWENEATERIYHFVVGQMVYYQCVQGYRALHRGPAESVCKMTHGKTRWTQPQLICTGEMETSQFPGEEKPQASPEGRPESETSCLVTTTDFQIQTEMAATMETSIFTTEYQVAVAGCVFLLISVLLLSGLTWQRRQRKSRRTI
# T1 sequence 2: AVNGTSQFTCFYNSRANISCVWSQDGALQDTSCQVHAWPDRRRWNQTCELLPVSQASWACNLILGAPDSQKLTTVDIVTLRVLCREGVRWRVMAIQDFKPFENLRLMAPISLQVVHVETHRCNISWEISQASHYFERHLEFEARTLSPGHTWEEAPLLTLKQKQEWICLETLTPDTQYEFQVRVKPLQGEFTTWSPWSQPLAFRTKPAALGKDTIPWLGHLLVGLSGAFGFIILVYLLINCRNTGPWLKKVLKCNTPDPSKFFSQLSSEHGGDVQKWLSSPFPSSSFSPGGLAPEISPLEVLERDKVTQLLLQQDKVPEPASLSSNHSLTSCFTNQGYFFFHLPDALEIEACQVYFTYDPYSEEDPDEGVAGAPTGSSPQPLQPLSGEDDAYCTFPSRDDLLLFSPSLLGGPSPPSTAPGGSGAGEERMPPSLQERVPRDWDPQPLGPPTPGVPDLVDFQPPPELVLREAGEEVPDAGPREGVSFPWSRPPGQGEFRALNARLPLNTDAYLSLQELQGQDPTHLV
# T1 sequence 3: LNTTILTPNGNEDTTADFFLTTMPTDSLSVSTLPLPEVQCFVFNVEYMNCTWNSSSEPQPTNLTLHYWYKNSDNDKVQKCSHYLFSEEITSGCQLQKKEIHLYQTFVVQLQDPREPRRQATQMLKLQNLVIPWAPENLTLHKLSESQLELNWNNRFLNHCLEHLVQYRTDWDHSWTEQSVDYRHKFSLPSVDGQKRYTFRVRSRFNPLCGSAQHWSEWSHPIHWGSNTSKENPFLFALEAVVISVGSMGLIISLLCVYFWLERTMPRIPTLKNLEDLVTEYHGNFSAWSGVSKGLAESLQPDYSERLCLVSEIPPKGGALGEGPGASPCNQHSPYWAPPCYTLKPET
# B1: DC00053 (other)
# chain 1: QVQLVESGGGLVQPGGSLRLSCATSGFTFRNNFMSWVRQAPGKGLEWVSTISYGGESTTYAESVKGRFTISRDNAKNTLYLQMNNLKPEDTAVYYCAKATSYDSIRSGSRGQGTQVTVSSGGGGSGGGGSGGGGSEVQLVESGGGLVQTGGSLRLSCAASGGTFSRDAMAWFRQVPGKEREFVALISWSGATTNYADSVKGRFAISRDNGKNTVYLQMNRLKPADTAIYYCAADRRPMGSRSYFEPTEYDDWGQGTQVTVSSGGGGSGGGGSGGGGSDKTHTCPPCPAPEAAGGPSVFLFPPKPKDTLMISRTPEVTCVVVDVSHEDPEVKFNWYVDGVEVHNAKTKPREEQYNSTYRVVSVLTVLHQDWLNGKEYKCKVSNKALGAPIEKTISKAKGQPREPQVYTLPPSRDELTKNQVSLTCLVKGFYPSDIAVEWESNGQPENNYKTTPPVLDSDGSFLLYSKLTVDKSRWQQGNVFSCSVMHEALHNHYTQKSLSLSPGK
# chain 2: EVQLVESGGGLVQTGGSLRLSCAASGGTFSRDAMAWFRQVPGKEREFVALISWSGATTNYADSVKGRFAISRDNGKNTVYLQMNRLKPADTAIYYCAADRRPMGSRSYFEPTEYDDWGQGTQVTVSSGGGGSGGGGSGGGGSQVQLVESGGGLVQPGGSLRLSCATSGFTFRNNFMSWVRQAPGKGLEWVSTISYGGESTTYAESVKGRFTISRDNAKNTLYLQMNNLKPEDTAVYYCAKATSYDSIRSGSRGQGTQVTVSSGGGGSGGGGSGGGGSQVQLVESGGGLVQAGGSLTLSCAAPGRTFGTDVVGWFRQAPGKEREFVASISRSGDGIYYDDSVKGRFTISRNNAWNTVNLQMNSLKVEDTAVYYCAAGDGWSTYDYWGQGTQVTVSSGGGGSGGGGSGGGGSDKTHTCPPCPAPEAAGGPSVFLFPPKPKDTLMISRTPEVTCVVVDVSHEDPEVKFNWYVDGVEVHNAKTKPREEQYNSTYRVVSVLTVLHQDWLNGKEYKCKVSNKALGAPIEKTISKAKGQPREPQVYTLPPSRDELTKNQVSLTCLVKGFYPSDIAVEWESNGQPENNYKTTPPVLDSDGSFFLYSRLTVDKSRWQQGNVFSCSVMHEALHNHYTQKSLSLSPGK
# B2: DC00055 (other)
# chain 1: QVQLVESGGGLVQPGGSLRLSCATSGFTFRNNFMSWVRQAPGKGLEWVSTISYGGESTTYAESVKGRFTISRDNAKNTLYLQMNNLKPEDTAVYYCAKATSYDSIRSGSRGQGTQVTVSSGGGGSGGGGSGGGGSEVQLVESGGGLVQTGGSLRLSCAASGGTFSRDAMAWFRQVPGKEREFVALISWSGATTNYADSVKGRFAISRDNGKNTVYLQMNRLKPADTAIYYCAADRRPMGSRSYFEPTEYDDWGQGTQVTVSSGGGGSGGGGSGGGGSDKTHTCPPCPAPEAAGGPSVFLFPPKPKDTLMISRTPEVTCVVVDVSHEDPEVKFNWYVDGVEVHNAKTKPREEQYNSTYRVVSVLTVLHQDWLNGKEYKCKVSNKALGAPIEKTISKAKGQPREPQVYTLPPSRDELTKNQVSLTCLVKGFYPSDIAVEWESNGQPENNYKTTPPVLDSDGSFLLYSKLTVDKSRWQQGNVFSCSVMHEALHNHYTQKSLSLSPGK
# chain 2: QVQLVESGGGLVQPGGSLRLSCATSGFTFRNNFMSWVRQAPGKGLEWVSTISYGGESTTYAESVKGRFTISRDNAKNTLYLQMNNLKPEDTAVYYCAKATSYDSIRSGSRGQGTQVTVSSGGGGSGGGGSGGGGSQVQLVESGGGLVQAGGSLTLSCAAPGRTFGTDVVGWFRQAPGKEREFVASISRSGDGIYYDDSVKGRFTISRNNAWNTVNLQMNSLKVEDTAVYYCAAGDGWSTYDYWGQGTQVTVSSGGGGSGGGGSGGGGSEVQLVESGGGLVQTGGSLRLSCAASGGTFSRDAMAWFRQVPGKEREFVALISWSGATTNYADSVKGRFAISRDNGKNTVYLQMNRLKPADTAIYYCAADRRPMGSRSYFEPTEYDDWGQGTQVTVSSGGGGSGGGGSGGGGSDKTHTCPPCPAPEAAGGPSVFLFPPKPKDTLMISRTPEVTCVVVDVSHEDPEVKFNWYVDGVEVHNAKTKPREEQYNSTYRVVSVLTVLHQDWLNGKEYKCKVSNKALGAPIEKTISKAKGQPREPQVYTLPPSRDELTKNQVSLTCLVKGFYPSDIAVEWESNGQPENNYKTTPPVLDSDGSFFLYSRLTVDKSRWQQGNVFSCSVMHEALHNHYTQKSLSLSPGK
# B3: DC00057 (other)
# chain 1: QVQLVESGGGLVQPGGSLRLSCATSGFTFRNNFMSWVRQAPGKGLEWVSTISYGGESTTYAESVKGRFTISRDNAKNTLYLQMNNLKPEDTAVYYCAKATSYDSIRSGSRGQGTQVTVSSGGGGSGGGGSGGGGSEVQLVESGGGLVQTGGSLRLSCAASGGTFSRDAMAWFRQVPGKEREFVALISWSGATTNYADSVKGRFAISRDNGKNTVYLQMNRLKPADTAIYYCAADRRPMGSRSYFEPTEYDDWGQGTQVTVSSGGGGSGGGGSGGGGSDKTHTCPPCPAPEAAGGPSVFLFPPKPKDTLMISRTPEVTCVVVDVSHEDPEVKFNWYVDGVEVHNAKTKPREEQYNSTYRVVSVLTVLHQDWLNGKEYKCKVSNKALGAPIEKTISKAKGQPREPQVYTLPPSRDELTKNQVSLTCLVKGFYPSDIAVEWESNGQPENNYKTTPPVLDSDGSFLLYSKLTVDKSRWQQGNVFSCSVMHEALHNHYTQKSLSLSPGK
# chain 2: QVQLVESGGGLVQPGGSLRLSCATSGFTFRNNFMSWVRQAPGKGLEWVSTISYGGESTTYAESVKGRFTISRDNAKNTLYLQMNNLKPEDTAVYYCAKATSYDSIRSGSRGQGTQVTVSSGGGGSGGGGSGGGGSEVQLVESGGGLVQTGGSLRLSCAASGGTFSRDAMAWFRQVPGKEREFVALISWSGATTNYADSVKGRFAISRDNGKNTVYLQMNRLKPADTAIYYCAADRRPMGSRSYFEPTEYDDWGQGTQVTVSSGGGGSGGGGSGGGGSQVQLVESGGGLVQAGGSLTLSCAAPGRTFGTDVVGWFRQAPGKEREFVASISRSGDGIYYDDSVKGRFTISRNNAWNTVNLQMNSLKVEDTAVYYCAAGDGWSTYDYWGQGTQVTVSSGGGGSGGGGSGGGGSDKTHTCPPCPAPEAAGGPSVFLFPPKPKDTLMISRTPEVTCVVVDVSHEDPEVKFNWYVDGVEVHNAKTKPREEQYNSTYRVVSVLTVLHQDWLNGKEYKCKVSNKALGAPIEKTISKAKGQPREPQVYTLPPSRDELTKNQVSLTCLVKGFYPSDIAVEWESNGQPENNYKTTPPVLDSDGSFFLYSRLTVDKSRWQQGNVFSCSVMHEALHNHYTQKSLSLSPGK
# B4: DC00058 (other)
# chain 1: QVQLVESGGGLVQPGGSLRLSCATSGFTFRNNFMSWVRQAPGKGLEWVSTISYGGESTTYAESVKGRFTISRDNAKNTLYLQMNNLKPEDTAVYYCAKATSYDSIRSGSRGQGTQVTVSSGGGGSGGGGSGGGGSEVQLVESGGGLVQTGGSLRLSCAASGGTFSRDAMAWFRQVPGKEREFVALISWSGATTNYADSVKGRFAISRDNGKNTVYLQMNRLKPADTAIYYCAADRRPMGSRSYFEPTEYDDWGQGTQVTVSSGGGGSGGGGSGGGGSDKTHTCPPCPAPEAAGGPSVFLFPPKPKDTLMISRTPEVTCVVVDVSHEDPEVKFNWYVDGVEVHNAKTKPREEQYNSTYRVVSVLTVLHQDWLNGKEYKCKVSNKALGAPIEKTISKAKGQPREPQVYTLPPSRDELTKNQVSLTCLVKGFYPSDIAVEWESNGQPENNYKTTPPVLDSDGSFLLYSKLTVDKSRWQQGNVFSCSVMHEALHNHYTQKSLSLSPGK
# chain 2: QVQLVESGGGLVQAGGSLTLSCAAPGRTFGTDVVGWFRQAPGKEREFVASISRSGDGIYYDDSVKGRFTISRNNAWNTVNLQMNSLKVEDTAVYYCAAGDGWSTYDYWGQGTQVTVSSGGGGSGGGGSGGGGSEVQLVESGGGLVQTGGSLRLSCAASGGTFSRDAMAWFRQVPGKEREFVALISWSGATTNYADSVKGRFAISRDNGKNTVYLQMNRLKPADTAIYYCAADRRPMGSRSYFEPTEYDDWGQGTQVTVSSGGGGSGGGGSGGGGSQVQLVESGGGLVQPGGSLRLSCATSGFTFRNNFMSWVRQAPGKGLEWVSTISYGGESTTYAESVKGRFTISRDNAKNTLYLQMNNLKPEDTAVYYCAKATSYDSIRSGSRGQGTQVTVSSDKTHTCPPCPAPEAAGGPSVFLFPPKPKDTLMISRTPEVTCVVVDVSHEDPEVKFNWYVDGVEVHNAKTKPREEQYNSTYRVVSVLTVLHQDWLNGKEYKCKVSNKALGAPIEKTISKAKGQPREPQVYTLPPSRDELTKNQVSLTCLVKGFYPSDIAVEWESNGQPENNYKTTPPVLDSDGSFFLYSRLTVDKSRWQQGNVFSCSVMHEALHNHYTQKSLSLSPGK
# Target: T1, human IL-2 receptor (IL-2Rα/IL-2Rβ/γc)
# Test: cell-based or functional assay
Binder,"EC50 (nM) pSTAT5, NK, human PBMCs","EC50 (nM) pSTAT5, Treg, human PBMCs",Fold Max signal (% pSTAT5+) Treg/NK,"Max signal (% pSTAT5+), NK","Max signal (% pSTAT5+), Treg",fold EC50 NK/Treg
B1,0.057 nM,0.488 pM,7 fold,13 % pSTAT5+,84 % pSTAT5+,117 fold
B2,0.889 nM,< 0.1 pM,3 fold,34 % pSTAT5+,97 % pSTAT5+,> 8890 fold
B3,0.548 nM,0.00208 nM,5 fold,19 % pSTAT5+,89 % pSTAT5+,263 fold
B4,1.87 nM,0.0025 nM,3 fold,34 % pSTAT5+,97 % pSTAT5+,748 fold
